Data published in patent US20210071221.

How the values were obtained:
[1] = target: T1, Acceptor substrate 2 (SEQ ID NO: 5)
T1 chain: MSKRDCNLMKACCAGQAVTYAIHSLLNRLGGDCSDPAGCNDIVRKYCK

[2] = target: T2, Acceptor substrate 1 (SEQ ID NO: 4)
T2 chain: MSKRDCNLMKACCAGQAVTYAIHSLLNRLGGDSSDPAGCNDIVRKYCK

[3] = target: T3, Acceptor substrate 6 (SEQ ID NO: 9)
T3 chain: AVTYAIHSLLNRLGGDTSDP

B1: C-terminal 6X-His tagged recombinant nucleotide dependent glycosyltransferase protein (GT-CTH) (protein)
chain: MGYSENFIANDWFNVEVFNKNKYTLTNQENKDVTELWLQILKGLKFPNELKETVSYSKNLKELSLKTHAEVSVCIIAKNEQDSIRKCINSIYEFSDEIIFIDTGSIDSTKKIVKEIASEKVKIFDYTWQDDFSDARNYSIQKASKEWILIIDADEYVSSDELIKLRLLIDMLDRFKFKDSLRVSCAIYQLDNVITHGQSRLFRNNNKIKYYGLIHEELRNNKGLDPIFNVESEITFFHDGYKEILRKEKCERNIRLLAKMLEKEPDNVRWAYLYCRDSFSINSNIDFEKILLPFLIKNMDESISCENILLTNYTHLILFLITKKYIIDGKSSLASKCIEVLEKMLPNSSDVTFYKFLNKQHSLYEQQFEFLKEVIQFRKNNEYDQYSQIGCNLLHYDLLISGLLFDVKSYDYSYQYFLKLDLANYFSELEIPDEYKMLINKYRENESLEHHHHHH
- in vitro glycosylation of the acceptor peptide, LC-ESI-Q/TOF [1]: observed monoisotopic mass of di-glycosylated product as 5515.53 Da (Expected monoisotopic mass 5515.41 Da)
- in vitro glycosylation of the acceptor peptide, LC-ESI-Q/TOF [2]: observed average mass of di-glycosylated product as 5503.47 Da (Expected average mass 5503.00 Da)
- in vitro glycosylation of the acceptor peptide, MALDI-TOF [3]: observed (M+H)^+ of di-glycosylated product as 2424.65 Da (Expected (M+H)^+ 2424.07 Da) and observed (M+H)^+ of mono-glycosylated product as 2262.57 Da
